Patent US20200138969A1 (published 2020)

T1: human DLL3 (delta-like ligand 3), on the cell surface (human, UniProt Q9NYJ7 27-618)
T1 sequence: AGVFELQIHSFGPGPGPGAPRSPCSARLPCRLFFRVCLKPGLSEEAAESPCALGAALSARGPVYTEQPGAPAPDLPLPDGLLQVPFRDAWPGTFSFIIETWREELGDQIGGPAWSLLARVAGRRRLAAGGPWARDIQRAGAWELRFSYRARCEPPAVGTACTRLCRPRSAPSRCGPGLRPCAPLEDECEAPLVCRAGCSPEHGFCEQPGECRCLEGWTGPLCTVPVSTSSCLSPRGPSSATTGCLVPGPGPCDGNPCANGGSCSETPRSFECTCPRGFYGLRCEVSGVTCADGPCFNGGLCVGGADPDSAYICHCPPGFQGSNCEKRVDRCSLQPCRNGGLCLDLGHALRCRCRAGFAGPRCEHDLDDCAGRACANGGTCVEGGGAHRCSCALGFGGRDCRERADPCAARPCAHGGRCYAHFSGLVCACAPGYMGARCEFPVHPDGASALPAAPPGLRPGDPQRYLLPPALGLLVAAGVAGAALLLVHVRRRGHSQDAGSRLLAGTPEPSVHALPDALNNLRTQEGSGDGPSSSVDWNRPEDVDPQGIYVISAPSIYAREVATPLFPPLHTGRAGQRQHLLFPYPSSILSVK


Target: T1, human DLL3 (delta-like ligand 3), on …
Test: cell-based or functional assay

Binder | EC50 of killing of OV26 (ovarian NET NTX tumor) cells with anti-mouse IgG Fab-saporin
SC16.34 (antibody, V domains shown) VH: QIQLVQSGPELKRPGETVKISCKASGYTFTNYGMNWVKQAPGKGLKWMGWINTYTGDPTYADDFKGRFAFSLETSASTAYLQINNLKNEDTATYFCARIGGNSPSDYWGQGTSLTVSS VL: SIVMTQTPKFLLVSAGDRVTITCKASQSVSNDVAWYQQKPGQSPKLLIYYASNRYSGVPDRFTGSGYGTDFTFTISTVQAEDLAVYFCQQDYSSPWTFGGGTKLEIK | 5700 nM
SC16.15 (antibody, V domains shown) VH: QVQLQQSGAELAKPGASVKMSCKASGYTFTRYWIHWIKQRPGQGLEWIGYINPTTVYTEFNQNFKDKATLTADKSSTTASMQLSSLTSEDSAVYYCARGGSNFFDYWGQGTTLTVSS VL: DIQMTQSPASLAASVGETVAITCRASENIYYNLAWYQQKQGKSPQLLIYTANSLEDGVPSRFSGSGSGTQYSLKINSMQPEDSATYFCKQAYDVPPTFGGGTKLEIK | 140 nM
